Patent US10172953B2, “XTEN conjugate compositions and methods of making same” (Amunix Operating Inc., priority 2012, dated 2019)
Like-named read-outs stand apart in the source and are kept apart here. Each block holds one molecule with its values, some of them ahead of it. Numbered stars: 1 amine (or outer) side, 2 acyl side, 3 side chain; on linkers, the order of the positions; unused ones are H or OH. Square brackets hold non-standard residues; d marks the D form. Side chains are listed from the residue outwards. Ends that are not written are not given here. Peptide text beside a SMILES is read from it. * marks the point of attachment. Ethylenediamine = C(CN[*:2])N[*:1]; Hyp = O=C(O)[C@@H]1C[C@@H](O)CN1; Phg = N[C@H](C(=O)O)c1ccccc1; CO = O=C([*:1])[*:2]; Bn = c1ccc(C*)cc1

How the values were obtained:
[1] = cited from earlier work
[2] = Analytical size exclusion chromatography (apparent MW, hydrodynamic radius); assay type: physicochemical; settings: for Apparent MW / RH (hydrodynamic radius): SEC; for Apparent Molecular Weight Factor: ratio of apparent molecular weight to calculated molecular weight
Experimental: Size exclusion chromatography analyses were performed on fusion proteins containing various therapeutic proteins and unstructured recombinant proteins of increasing length. […] Chromatogram profiles were monitored using OD214 nm and OD280 nm.

[3] = cited from earlier work; remark: listed apart in the source
[4] = cited from earlier work; remark: listed apart in the source
[5] = target: human recombinant GLP-2 glucagon family receptor (human) (UniProt O95838); test: cell-based or functional assay
[6] = unmodified peptide/protein, humans/patients
[7] = unmodified peptide (GLP-1: biological half-life)
[8] = unmodified peptide/protein, humans (oxyntomodulin: in human plasma; ghrelin: terminal half-life)

Sequence of UniProt O95838 (O95838 whole entry): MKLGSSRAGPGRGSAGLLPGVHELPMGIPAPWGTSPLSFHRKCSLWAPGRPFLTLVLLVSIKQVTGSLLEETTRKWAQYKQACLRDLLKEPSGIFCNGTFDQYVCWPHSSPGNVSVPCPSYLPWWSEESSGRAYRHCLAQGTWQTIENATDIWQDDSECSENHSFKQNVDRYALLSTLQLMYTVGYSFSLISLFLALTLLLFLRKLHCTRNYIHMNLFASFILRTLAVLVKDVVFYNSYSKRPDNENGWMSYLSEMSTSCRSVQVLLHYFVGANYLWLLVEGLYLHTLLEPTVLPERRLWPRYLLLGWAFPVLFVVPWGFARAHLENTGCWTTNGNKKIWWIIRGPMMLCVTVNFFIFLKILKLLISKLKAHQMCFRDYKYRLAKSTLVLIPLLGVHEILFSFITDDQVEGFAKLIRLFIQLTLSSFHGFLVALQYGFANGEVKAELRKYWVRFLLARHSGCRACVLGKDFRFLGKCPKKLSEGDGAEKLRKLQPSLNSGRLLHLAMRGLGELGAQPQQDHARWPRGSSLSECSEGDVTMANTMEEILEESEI

Molecule: CNP-22
- half-life ([1]; unmodified peptide/protein (Fxa: plasma half-life)): 2.6 min

Molecule: AC616: fusion: XTEN AE864, GLP2-2G
- Apparent MW [2]: 1427 kDa
- RH (hydrodynamic radius) [2]: 10 nm
- Apparent Molecular Weight Factor [2]: 17.2

Molecule: NCCCC[C@@H]1NC(=O)[C@@H](Cc2c[nH]c3ccccc23)NC(=O)[C@H](c2ccccc2)NC(=O)[C@@H]2C[C@@H](OC(=O)NCCN)CN2C(=O)[C@H](Cc2ccccc2)NC(=O)[C@H](Cc2ccc(OCc3ccccc3)cc2)NC1=O [Pasireotide, [(3S,6S,9S,12R,15S,18S,20R)-9-(4-aminobutyl)-3-benzyl-12-(1H-indol-3-ylmethyl)-2,5,8,11,14,17-hexaoxo-15-phenyl-6-[(4-phenylmethoxyphenyl)methyl]-1,4,7,10,13,16-hexazabicyclo[16.3.0]henicosan-20-yl] N-(2-aminoethyl)carbamate, reference compound] (cyclo([Hyp]([CO-Ethylenediamine])[Phg][dW]KY(Bn)F))
- half-life [3, 6]: 12 to 17 h

Molecule: GLP-(7-37)OH: form of human glucagon like peptide-1 (HAEGTFTSDVSSTLEGQAALEFIAWLVKGRG; listed as Homo sapiens)
- half-life [1, 7]: 3 to 5 min

Molecule: CC(C)[C@H]1C(=O)N[C@@H](CCCN=C(N)N)C(=O)NCC(=O)N[C@@H](CC(=O)O)C(=O)N[C@H](Cc2ccccc2)C(=O)N1C [cilengitide, 2-[(2S,5R,8S,11S)-5-benzyl-11-{3-[(diaminomethylidene)amino]propyl}-7-methyl-3,6,9,12,15-pentaoxo-8-(propan-2-yl)-1,4,7,10,13-pentaazacyclopentadecan-2-yl]acetic acid, reference compound]
- maximum drug concentration (poor solubility) [4]: ≤ 15 mg/mL
- half-life [3, 6]: 3 to 5 h

Molecule: α-MSH: 13-amino acid peptide N-Ac-SYSMGFRWGLPV (SEQ ID NO: 564) (not fully specified; printed as N-Ac-SYSMGFRWGLPV; ends and bridges not checked)
- half-life ([1]; unmodified form, in words): mere seconds

Molecule: IL-7: human interleukin encoded by the IL7 gene (SEQ ID NO: 562)
- half-life [3, 6]: approximately 10 h

Molecule: oxyntomodulin: 37 amino acid peptide (SEQ ID NO: 552)
- half-life ([3]; human, in vivo): ~0.2 h

Molecule: relaxin
- half-life [3, 8]: less than 10 min

Molecule: POT4: synthetic cyclic peptide H-Ile-[Cys-Val-Val-Gln-Asp-Trp-Gly-His-His-Arg-Cys]-Thr-NH2, C3 complement inhibitor [reference compound]
- circulating in vivo half-life ([1]; in vivo): 8 h

Molecule: GHRH: 44-amino acid peptide hormone (SEQ ID NO: 542)
- half-life [1, 7]: less than 15 minutes

Molecule: ghrelin: human hormone GSSFLSPEHQRVQQRKESKKPPAKLQPR (SEQ ID NO: 557) (listed as Homo sapiens)
- half-life ([3]; human, in vivo): 0.167 to 0.5 h

Molecule: enfuvirtide
- half-life [3, 6]: 3.8 h

Molecule: metreleptin: the commercially available form of leptin [reference compound]
- half-life [3, 8]: 0.13 to 0.5 h

Molecule: C-peptide: human pancreatic protein, middle segment of proinsulin (SEQ ID NO: 556) (EAEDLQVGQVELGGGPGAGSLQPLALEGSLQ; listed as Homo sapiens)
- half-life ([3]; unmodified peptide, humans): about 30 minutes

B1: Glucagon-Y288: fusion protein of glucagon plus XTEN Y288 (protein)
chain: HSQGTFTSDYSKYLDSRRAQDFVQWLMNTGEGSGEGSEGEGSEGSGEGEGSEGSGEGEGGSEGSEGEGGSEGSEGEGGSEGSEGEGSGEGSEGEGGSEGSEGEGSGEGSEGEGSEGGSEGEGGSEGSEGEGSGEGSEGEGGEGGSEGEGSEGSGEGEGSGEGSEGEGSEGSGEGEGSGEGSEGEGSEGSGEGEGSEGSGEGEGGSEGSEGEGSEGSGEGEGGEGSGEGEGSGEGSEGEGGGEGSEGEGSGEGGEGEGSEGGSEGEGGSEGGEGEGSEGSGEGEGSEGGSEGEGSEGGSEGEGSEGSGEGEGSEGSGE
- Apparent MW [2]: 370 kDa
- RH (hydrodynamic radius) [2]: 7.0 nm
- Apparent Molecular Weight Factor [2]: 12.9

- GPCR Ca2+ flux mobilization, EC50 [5]: 529 nM
B2: conjugate GLP2-2G-XTEN (protein, part only; not given: added cysteine position, not shown: small tags and cut ends)
peptide, part: HGDGSFSDEMNTILDNLAARDFINWLIQTKITD
chain: GSPGSPAGSPTSTEEGTSESATPESGPGTSTEPSEGSAPGSPAGSPTSTEEGTSTEPSEGSAPGTSTEPSEGSAPGTSESATPESGPGSEPATSGSETPGSEPATSGSETPGSPAGSPTSTEEGTSESATPESGPGTSTEPSEGSAPGTSTEPSEGSAPGSPAGSPTSTEEGTSTEPSEGSAPGTSTEPSEGSAPGTSESATPESGPGTSTEPSEGSAPGTSESATPESGPGSEPATSGSETPGTSTEPSEGSAPGTSTEPSEGSAPGTSESATPESGPGTSESATPESGPGSPAGSPTSTEEGTSESATPESGPGSEPATSGSETPGTSESATPESGPGTSTEPSEGSAPGTSTEPSEGSAPGTSTEPSEGSAPGTSTEPSEGSAPGTSTEPSEGSAPGTSTEPSEGSAPGSPAGSPTSTEEGTSTEPSEGSAPGTSESATPESGPGSEPATSGSETPGTSESATPESGPGSEPATSGSETPGTSESATPESGPGTSTEPSEGSAPGTSESATPESGPGSPAGSPTSTEEGSPAGSPTSTEEGSPAGSPTSTEEGTSESATPESGPGTSTEPSEGSAPGTSESATPESGPGSEPATSGSETPGTSESATPESGPGSEPATSGSETPGTSESATPESGPGTSTEPSEGSAPGSPAGSPTSTEEGTSESATPESGPGSEPATSGSETPGTSESATPESGPGSPAGSPTSTEEGSPAGSPTSTEEGTSTEPSEGSAPGTSESATPESGPGTSESATPESGPGTSESATPESGPGSEPATSGSETPGSEPATSGSETPGSPAGSPTSTEEGTSTEPSEGSAPGTSTEPSEGSAPGSEPATSGSETPGTSESATPESGPGTSTEPSEGSAPGR
modifications: N-terminal alpha-amino group modified with sulfo-SMCC and linked to GLP2-Cys; added cysteine thiol linked through the sulfo-SMCC cross-linker (maleimide) to the N-terminal alpha-amino group of the XTEN chain

B3: Endostatin: 20-kDa C-terminal fragment derived from type XVIII collagen (SEQ ID NO: 565) (protein, listed as Homo sapiens)
chain: HSHRDFQPVLHLVALNSPLSGGMRGIRGADFQCFQQARAVGLAGTFRAFLSSRLQDLYSIVRRADRAAVPIVNLKDELLFPSWEALFSGSEGPLKPGARIFSFDGKDVLRHPTWPQKSVWHGSDPNGRRLTESYCETWRTEAPSATGQASSLLGGRLLGQSAASCHHAYIVLCIENSFMTASK
- half-life [3, 6]: 13 h

B4: AC404: fusion: XTEN AE864, FVII (protein)
chain: AVFVTQEEAHGVLHRRRRANAFLEELRPGSLERECKEEQCSFEEAREIFKDAERTKLFWISYSDGDQCASSPCQNGGSCKDQLQSYICFCLPAFEGRNCETHKDDQLICVNENGGCEQYCSDHTGTKRSCRCHEGYSLLADGVSCTPTVEYPCGKIPILEKRNASKPQGRIVGGKVCPKGECPWQVLLLVNGAQLCGGTLINTIWVVSAAHCFDKIKNWRNLIAVLGEHDLSEHDGDEQSRRVAQVIIPSTYVPGTTNHDIALLRLHQPVVLTDHVVPLCLPERTFSERTLAFVRFSLVSGWGQLLDRGATALELMVLNVPRLMTQDCLQQSRKVGDSPNITEYMFCAGYSDGSKDSCKGDSGGPHATHYRGTWYLTGIVSWGQGCATVGHFGVYTRVSQYIEWLQKLMRSEPRPGVLLRAPFPGSPGSPAGSPTSTEEGTSESATPESGPGTSTEPSEGSAPGSPAGSPTSTEEGTSTEPSEGSAPGTSTEPSEGSAPGTSESATPESGPGSEPATSGSETPGSEPATSGSETPGSPAGSPTSTEEGTSESATPESGPGTSTEPSEGSAPGTSTEPSEGSAPGSPAGSPTSTEEGTSTEPSEGSAPGTSTEPSEGSAPGTSESATPESGPGTSTEPSEGSAPGTSESATPESGPGSEPATSGSETPGTSTEPSEGSAPGTSTEPSEGSAPGTSESATPESGPGTSESATPESGPGSPAGSPTSTEEGTSESATPESGPGSEPATSGSETPGTSESATPESGPGTSTEPSEGSAPGTSTEPSEGSAPGTSTEPSEGSAPGTSTEPSEGSAPGTSTEPSEGSAPGTSTEPSEGSAPGSPAGSPTSTEEGTSTEPSEGSAPGTSESATPESGPGSEPATSGSETPGTSESATPESGPGSEPATSGSETPGTSESATPESGPGTSTEPSEGSAPGTSESATPESGPGSPAGSPTSTEEGSPAGSPTSTEEGSPAGSPTSTEEGTSESATPESGPGTSTEPSEGSAPGTSESATPESGPGSEPATSGSETPGTSESATPESGPGSEPATSGSETPGTSESATPESGPGTSTEPSEGSAPGSPAGSPTSTEEGTSESATPESGPGSEPATSGSETPGTSESATPESGPGSPAGSPTSTEEGSPAGSPTSTEEGTSTEPSEGSAPGTSESATPESGPGTSESATPESGPGTSESATPESGPGSEPATSGSETPGSEPATSGSETPGSPAGSPTSTEEGTSTEPSEGSAPGTSTEPSEGSAPGSEPATSGSETPGTSESATPESGPGTSTEPSEGSAPGSSS
- Apparent MW [2]: 1900 kDa
- RH (hydrodynamic radius) [2]: 10.1 nm
- Apparent Molecular Weight Factor [2]: 14.7

B5: AC398: fusion: XTEN AE288, FVII (protein)
chain: AVFVTQEEAHGVLHRRRRANAFLEELRPGSLERECKEEQCSFEEAREIFKDAERTKLFWISYSDGDQCASSPCQNGGSCKDQLQSYICFCLPAFEGRNCETHKDDQLICVNENGGCEQYCSDHTGTKRSCRCHEGYSLLADGVSCTPTVEYPCGKIPILEKRNASKPQGRIVGGKVCPKGECPWQVLLLVNGAQLCGGTLINTIWVVSAAHCFDKIKNWRNLIAVLGEHDLSEHDGDEQSRRVAQVIIPSTYVPGTTNHDIALLRLHQPVVLTDHVVPLCLPERTFSERTLAFVRFSLVSGWGQLLDRGATALELMVLNVPRLMTQDCLQQSRKVGDSPNITEYMFCAGYSDGSKDSCKGDSGGPHATHYRGTWYLTGIVSWGQGCATVGHFGVYTRVSQYIEWLQKLMRSEPRPGVLLRAPFPGSPGTSESATPESGPGSEPATSGSETPGTSESATPESGPGSEPATSGSETPGTSESATPESGPGTSTEPSEGSAPGSPAGSPTSTEEGTSESATPESGPGSEPATSGSETPGTSESATPESGPGSPAGSPTSTEEGSPAGSPTSTEEGTSTEPSEGSAPGTSESATPESGPGTSESATPESGPGTSESATPESGPGSEPATSGSETPGSEPATSGSETPGSPAGSPTSTEEGTSTEPSEGSAPGTSTEPSEGSAPGSEPATSGSETPGTSESATPESGPGTSTEPSEGSAPGSSS
- Apparent MW [2]: 650 kDa
- RH (hydrodynamic radius) [2]: 8.2 nm
- Apparent Molecular Weight Factor [2]: 8.5
